Test in all cases: two-hybrid library CCNG1;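 also: natural log of median RNA to DNA barcode read ratio; higher means stronger binding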
One assay addresses T1, O12-bA.
T1 chain: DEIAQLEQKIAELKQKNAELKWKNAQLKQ

A further assay concerns the target T2, O15-bA.
T2 chain: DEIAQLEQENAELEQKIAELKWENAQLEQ

For another assay, the target named is T3, O14-bA.
T3 chain: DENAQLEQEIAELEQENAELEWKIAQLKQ

The target in a further assay is T4, O13-bA.
T4 chain: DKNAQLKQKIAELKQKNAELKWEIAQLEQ

Another assay deals with T5, O8-bA.
T5 chain: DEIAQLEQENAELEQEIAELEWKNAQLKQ

A further assay addresses T6, O5-bA.
T6 chain: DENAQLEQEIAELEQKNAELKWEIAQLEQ

For a further assay, the target named is T7, O2-bA.
T7 chain: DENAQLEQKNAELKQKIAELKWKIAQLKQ

Another assay concerns the target T8, O7-bA.
T8 chain: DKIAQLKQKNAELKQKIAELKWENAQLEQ

For another assay, the target named is T9, O3-bA.
T9 chain: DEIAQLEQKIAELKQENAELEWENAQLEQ

A further assay has as its target T10, O16-bA.
T10 chain: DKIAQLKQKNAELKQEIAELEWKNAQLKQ

The target in another assay is T11, O6-bA.
T11 chain: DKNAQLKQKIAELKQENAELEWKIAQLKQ

Another assay deals with T12, O4-bA.
T12 chain: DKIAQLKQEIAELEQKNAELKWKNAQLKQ

For another assay, the target named is T13, O9-bA.
T13 chain: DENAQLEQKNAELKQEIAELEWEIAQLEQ
To be noted: mean of both orientations.

In another assay the target is T14, O10-bA.
T14 chain: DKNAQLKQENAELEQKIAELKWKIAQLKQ

The next assay deals with T15, O11-bA.
T15 chain: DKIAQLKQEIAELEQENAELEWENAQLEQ

A further assay has as its target T16, 4H584-bN.
T16 chain: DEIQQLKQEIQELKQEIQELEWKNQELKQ

The next assay addresses T17, 4H3638-bN.
T17 chain: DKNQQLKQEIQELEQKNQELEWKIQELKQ

Another assay deals with T18, 4H906-bN.
T18 chain: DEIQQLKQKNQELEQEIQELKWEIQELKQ

The target of a further assay is T19, 4H570-bN.
T19 chain: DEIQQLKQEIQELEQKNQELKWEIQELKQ

In the next assay the target is T20, 4H850-bN.
T20 chain: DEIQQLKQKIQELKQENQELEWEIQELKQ

A further assay deals with T21, 4H3631-bN.
T21 chain: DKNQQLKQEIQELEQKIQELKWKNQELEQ

For the next assay, the target named is T22, 4H3817-bN.
T22 chain: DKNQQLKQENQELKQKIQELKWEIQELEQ

The next assay concerns the target T23, 4H619-bN.
T23 chain: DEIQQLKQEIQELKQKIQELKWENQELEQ

The target of a further assay is T24, 4H3974-bN.
T24 chain: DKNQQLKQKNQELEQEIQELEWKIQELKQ

The next assay concerns the target T25, 4H687-bH.
T25 chain: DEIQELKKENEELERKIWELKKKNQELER

A further assay has as its target T26, 4H3112-bH.
T26 chain: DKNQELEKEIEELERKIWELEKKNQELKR

The next assay deals with T27, 4H717-bH.
T27 chain: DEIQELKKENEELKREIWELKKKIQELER

The next assay deals with T28, 4H607-bH.
T28 chain: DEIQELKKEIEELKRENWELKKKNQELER

A further assay has as its target T29, 4H1845-bH.
T29 chain: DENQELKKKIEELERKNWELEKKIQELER

For a further assay, the target named is T30, 4H72-bH.
T30 chain: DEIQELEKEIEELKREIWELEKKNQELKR

A further assay deals with T31, 4H4001-bH.
T31 chain: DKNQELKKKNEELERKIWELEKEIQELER

Another assay concerns the target T32, 4H883-bH.
T32 chain: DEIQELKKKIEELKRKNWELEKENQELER

In another assay the target is T33, 4H797-bH.
T33 chain: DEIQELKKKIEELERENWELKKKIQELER

In the next assay the target is T34, 4H918-bH.
T34 chain: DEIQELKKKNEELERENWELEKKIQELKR

In another assay the target is T35, 4H3782-bH.
T35 chain: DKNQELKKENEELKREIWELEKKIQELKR

The next assay addresses T36, 4H3297-bN.
T36 chain: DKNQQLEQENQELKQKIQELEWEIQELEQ

For the next assay, the target named is T37, 4H568-bH.
T37 chain: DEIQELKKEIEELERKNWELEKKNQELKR

For the next assay, the target named is T38, 4H953-bH.
T38 chain: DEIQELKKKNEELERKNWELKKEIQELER

Another assay deals with T39, 4H2673-bA.
T39 chain: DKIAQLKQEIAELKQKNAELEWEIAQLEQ

For a further assay, the target named is T40, 4H2576-bH.
T40 chain: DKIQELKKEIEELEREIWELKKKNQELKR

The target in the next assay is T41, 4H1828-bH.
T41 chain: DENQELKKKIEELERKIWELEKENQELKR

For the next assay, the target named is T42, 4H2729-bH.
T42 chain: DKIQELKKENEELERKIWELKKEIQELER

Another assay deals with T43, 4H331-bH.
T43 chain: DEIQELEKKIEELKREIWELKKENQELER

Another assay deals with T44, 4H908-bH.
T44 chain: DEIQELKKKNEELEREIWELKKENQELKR

For the next assay, the target named is T45, 4H3427-bH.
T45 chain: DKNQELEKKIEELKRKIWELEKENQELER

The target in the next assay is T46, 4H3855-bH.
T46 chain: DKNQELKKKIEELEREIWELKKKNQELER

The next assay concerns the target T47, 4H967-bH.
T47 chain: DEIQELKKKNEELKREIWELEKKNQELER

For the next assay, the target named is T48, 4H2442-bH.
T48 chain: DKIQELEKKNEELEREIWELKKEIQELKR

For the next assay, the target named is T49, 4H454-bH.
T49 chain: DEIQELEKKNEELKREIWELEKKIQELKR

Another assay deals with T50, 4H338-bH.
T50 chain: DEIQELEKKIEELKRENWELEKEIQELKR

The next assay addresses T51, 4H3185-bH.
T51 chain: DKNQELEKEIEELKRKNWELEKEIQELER

For the next assay, the target named is T52, 4H754-bH.
T52 chain: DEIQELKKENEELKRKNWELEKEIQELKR

A further assay has as its target T53, 4H2618-bH.
T53 chain: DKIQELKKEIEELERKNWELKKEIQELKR

The next assay addresses T54, 4H3354-bH.
T54 chain: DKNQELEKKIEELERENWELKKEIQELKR

The next assay deals with T55, 4H2667-bH.
T55 chain: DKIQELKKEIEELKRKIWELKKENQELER

Where two headings read alike, the source gives them in different places.

With DKNAQLKQENAELEQKIAELKWKIAQLKQ [O10-bA], the interaction score with O12-bA is -0.395; in the assay with O15-bA, 0.0908; in the assay with O14-bA it was -1.3; in the assay with O13-bA it was 0.636; with O8-bA, 0.126; with O5-bA, -0.944. Further, the interaction score was 1.79 in the assay with O2-bA; 0.923 in the assay with O7-bA; -1.28 with O3-bA; 0.945 with O16-bA; 0.6 with O6-bA; -0.577 with O4-bA. Moreover, the interaction score in the assay with O9-bA worked out at 1.74; in the assay with O10-bA (mean of both orientations), 0.0957; with O11-bA, 0.88.

Take DKNQQLKQEIQELEQKIQELKWKNQELEQ [4H3631-bN]: the interaction score with 4H584-bN is 0.98; with 4H3638-bN, -1.15; with 4H906-bN, -0.602; with 4H570-bN it was -1.51; with 4H850-bN it was -1.06; with 4H3631-bN, -0.0832. In addition, the interaction score in the assay with 4H3817-bN was -0.125; with 4H619-bN, -0.252; in the assay with O10-bA, 0.22; with 4H3974-bN, -0.31.

For DENQELKKKIEELERKIWELEKENQELKR [4H1828-bH], the interaction score with 4H687-bH was -0.438; in the assay with 4H3112-bH it was 0.767; with 4H717-bH it was 0.163; in the assay with 4H607-bH, -2.38; with 4H1845-bH it was -0.21; with 4H72-bH, 0.102. For the same molecule, the interaction score in the assay with 4H4001-bH was 0.309; in the assay with 4H883-bH, 0.204; with 4H797-bH, 0.474; in the assay with 4H918-bH, 0.157; with 4H3782-bH, 0.484; in the assay with 4H3297-bN, -1.01. For the same molecule, the interaction score with 4H568-bH was -1.34; with 4H953-bH, -0.675; with 4H2673-bA it was -3.95; with 4H2576-bH, -1.69; in the assay with 4H1828-bH, 0.57; with 4H2729-bH it was -0.147. Moreover, the interaction score with 4H331-bH is -0.37; with 4H908-bH it was -0.285; with 4H3427-bH, 0.362; in the assay with 4H3855-bH, 0.0964; with 4H967-bH, -0.867; with 4H2442-bH, 0.0564. The interaction score with 4H454-bH is 0.741; with 4H338-bH it was 1.16; with 4H3185-bH, -0.478; with 4H754-bH, 0.147; with 4H2618-bH it was 0.369; in the assay with 4H3354-bH it was 0.672. For the same molecule, the interaction score with 4H2667-bH was 1.08.

The values are drawn from publication PMC10397247.
